Assay results reported in patent US7977313B2, “Methods and compositions for promoting localization of pharmaceutically active agents to bone” (Affinergy, Inc., priority 2007, dated 2011).
Where two headings read alike, the source gives them in different places. Values belong to the molecule of their own block, whether it stands above or below them. Where a SMILES comes first, the peptide text is derived from it. The star is where a group is joined. Biotin = O=C1N[C@H]2[C@H](CS[C@H]2CCCCC(=O)*)N1

Key:
BMP2 = biological target: T1, BMP2 (Homo sapiens, UniProt P12643); experiment: ELISA-format binding to BMP family members; details: ELISA-format assay
T1 sequence (P12643 283-396): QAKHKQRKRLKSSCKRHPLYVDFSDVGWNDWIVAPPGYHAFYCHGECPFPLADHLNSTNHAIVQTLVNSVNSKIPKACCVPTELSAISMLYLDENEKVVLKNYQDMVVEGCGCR
Procedure: (§1) Exemplary peptides were tested for their ability to bind with specificity to members of the BMP family in an ELISA-format assay. […] For example, BMP2-mediates transdifferentiation of C2C12 myoblasts into osteoblasts; and when treated with BMP-2, the alkaline phosphatase activity in C2C12 myoblasts was induced.

BMP4 = biological target: T2, BMP4 (Homo sapiens, UniProt P12644); experiment: ELISA-format binding to BMP family members; details: ELISA-format assay
T2 sequence (P12644 293-408): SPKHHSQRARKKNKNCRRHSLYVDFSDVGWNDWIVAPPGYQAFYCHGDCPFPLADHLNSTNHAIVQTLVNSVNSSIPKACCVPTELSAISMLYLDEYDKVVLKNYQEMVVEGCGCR
Procedure: as §1

BMP7 = biological target: T3, BMP7 (Homo sapiens, UniProt P18075); experiment: ELISA-format binding to BMP family members; details: ELISA-format assay
T3 sequence (P18075 293-431): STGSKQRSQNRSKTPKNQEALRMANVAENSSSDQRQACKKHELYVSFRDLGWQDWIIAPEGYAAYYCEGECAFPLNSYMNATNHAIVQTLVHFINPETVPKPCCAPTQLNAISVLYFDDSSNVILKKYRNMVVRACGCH
Procedure: as §1

BMP14 = biological target: T4, BMP14 (Homo sapiens, UniProt P43026); experiment: ELISA-format binding to BMP family members; details: ELISA-format assay
T4 sequence (P43026 382-501): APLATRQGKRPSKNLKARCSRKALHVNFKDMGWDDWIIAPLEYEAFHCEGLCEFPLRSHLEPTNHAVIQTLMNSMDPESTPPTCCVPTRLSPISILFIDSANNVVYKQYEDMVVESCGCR
Procedure: as §1

BMP5 = biological target: T5, BMP5 (Homo sapiens, UniProt P22003); experiment: ELISA-format binding to BMP family members; details: ELISA-format assay
T5 sequence (P22003 317-454): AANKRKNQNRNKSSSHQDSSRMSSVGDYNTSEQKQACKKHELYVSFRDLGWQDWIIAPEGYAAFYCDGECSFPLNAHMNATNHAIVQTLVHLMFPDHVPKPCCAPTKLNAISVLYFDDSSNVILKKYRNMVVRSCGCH
Procedure: as §1

stem cells = details: cited from earlier work
[1] = system: human adipose-derived stem cells; experiment: Binding to adipose-derived stem cells
From the text: In another embodiment, the pharmaceutically active agent comprises a cell. Thus, a coating composition embodiment includes at least one peptide having binding specificity to bone coupled to at least one peptide having binding specificity for cells. Such coating composition may further include cells bound to the at least one peptide having binding specificity for the cells. For example, RGDX peptides wherein X is any amino acid (SEQ ID NO:119) have been described as binding stem cells, mesenchymal stem cells, and osteoblasts.

[2] = phage display; cited from earlier work
human growth hormone = human growth hormone (Homo sapiens, UniProt P01241); details: cited from earlier work
human growth hormone, sequence (P01241 27-217): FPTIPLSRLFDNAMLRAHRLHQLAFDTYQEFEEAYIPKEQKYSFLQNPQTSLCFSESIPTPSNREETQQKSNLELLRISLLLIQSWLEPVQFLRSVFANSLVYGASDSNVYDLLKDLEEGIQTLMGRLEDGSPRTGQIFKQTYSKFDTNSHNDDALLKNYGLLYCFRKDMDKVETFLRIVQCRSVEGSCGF

[3] = biological target: demineralized bone matrix (DBM); experiment: Biotinylated peptide binding to demineralized bone matrix (ELISA-type, streptavidin-alkaline phosphatase/pNPP); parameters: species or system human
Procedure: Relative binding strengths of the peptides to bone, also used as a measure of binding specificity, were determined by testing serial dilutions of the peptide for binding to bone, as represented by DBM. Plotting the absorbance observed across the concentration range for each peptide sequence yielded a binding curve of the peptides to its target substrate from which can be determined an EC50. The goal of the screenings and selections was to identify one or more peptides that bind to the selected substrate with binding specificity, with an EC50 of less than or equal to about 10 μM, and for some embodiments, in the nanomolar range (<1 μM).
As a specific example, DBM was placed in a microtiter plate at a concentration of 3 mg equivalents per well, and then the wells were blocked with buffer containing 1% BSA for 1 hour at room temperature. The buffer containing 1% BSA was then aspirated from each well, and added to the wells were the serial dilutions of biotinylated peptide. The microtiter plates were incubated for 1 hour at room temperature on a plate shaker. The DBM was then allowed to settle, and the buffer was then aspirated from the wells. The DBM was washed three times with buffer-T, and then streptavidin-alkaline phosphatase was added. The microtiter plates were incubated for 1 hour at room temperature on a plate shaker. The DBM was then allowed to settle, and the buffer was then aspirated from the wells. The DBM was washed three times with buffer-T, pNPP (p-nitrophenyl phosphate) was used to develop the assay, and the absorbance was recorded at 405 nm. An estimate of the relative affinity (binding specificity, EC50) of a peptide for bone can be made by determining the concentration of peptide that gives one-half the maximal signal in the assay.
Example 1 illustrates methods to determine the relative binding strengths of peptide to bone. […] A biotin molecule was linked to the C-terminal lysine. Also shown in Table 3 are the relative binding strengths expressed as EC50 (μM) to bone as represented by DBM of human origin. It is noted that the EC50 values were the same or substantially similar when DBM of rabbit origin was used.
Relative binding strength embodiments of the compositions to bone, also used as a measure of binding specificity, were determined by testing serial dilutions of the composition for binding to bone, as described in Example 1 Section B. Plotting the absorbance observed across the concentration range for each composition yielded a binding curve and rough dissociation constant of the composition for bone. Similar to a peptide having binding specificity for bone from which the composition is made, one property of the composition embodiments is that they bind to bone with binding specificity as measured by an EC50 of less than or equal to about 10 μM, and for some embodiments, in the nanomolar range (<1 μM). Using the methods outlined in Example 1B herein, assayed were the relative binding strengths of […] illustrative composition embodiments which include the amino acid sequences shown in SEQ ID NOs: 137, 138, 139, 140, 141 & 142, see Table 7, and synthesized to include a C-terminal amino linker which was biotinylated to facilitate determination of the relative binding strengths to bone. Shown in Table 8 are the relative binding strengths of composition embodiments to bone, as represented by DBM, expressed as EC50 (in μM).

[4] = biological target: demineralized cortical bone (DCB); experiment: Biotinylated peptide binding to demineralized cortical bone
Procedure: (§2) Relative binding strengths of the peptides to bone, also used as a measure of binding specificity, were determined by testing serial dilutions of the peptide for binding to bone, as represented by DBM. Plotting the absorbance observed across the concentration range for each peptide sequence yielded a binding curve of the peptides to its target substrate from which can be determined an EC50. The goal of the screenings and selections was to identify one or more peptides that bind to the selected substrate with binding specificity, with an EC50 of less than or equal to about 10 μM, and for some embodiments, in the nanomolar range (<1 μM). […] As a specific example, DBM was placed in a microtiter plate at a concentration of 3 mg equivalents per well, and then the wells were blocked with buffer containing 1% BSA for 1 hour at room temperature. The buffer containing 1% BSA was then aspirated from each well, and added to the wells were the serial dilutions of biotinylated peptide. The microtiter plates were incubated for 1 hour at room temperature on a plate shaker. The DBM was then allowed to settle, and the buffer was then aspirated from the wells. The DBM was washed three times with buffer-T, and then streptavidin-alkaline phosphatase was added. The microtiter plates were incubated for 1 hour at room temperature on a plate shaker. The DBM was then allowed to settle, and the buffer was then aspirated from the wells. The DBM was washed three times with buffer-T, pNPP (p-nitrophenyl phosphate) was used to develop the assay, and the absorbance was recorded at 405 nm. An estimate of the relative affinity (binding specificity, EC50) of a peptide for bone can be made by determining the concentration of peptide that gives one-half the maximal signal in the assay. Using the methodology illustrated in Example 1, the peptides illustrated in Table 3 were also tested for relative binding strength to demineralized cortical bone, and to cancellous bone, additional evidence of binding specificity for bone.

cancellous bone (CNB) = experiment: Biotinylated peptide binding to cancellous bone
Procedure: as §2

[5] = DBM of human origin, biotinylated peptide, read-out: Binding specificity for bone (e.g., DBM) EC50
[6] = demineralized bone matrix, read-out: EC50 (μM) for DBM

Binding specificity for BMP2 (BMP2): showed binding specificity
Binding specificity for BMP4 (BMP4): showed binding specificity
Binding specificity for BMP7 (BMP7): showed binding specificity
Binding specificity for BMP14 (BMP14): showed binding specificity
Molecule: 58 (SSWEVFSSLESGSVGAGAGSR) [compound 58]

Binding specificity for BMP2 (BMP2): displayed binding specificity
Binding specificity for BMP4 (BMP4): displayed binding specificity
Binding specificity for BMP5 (BMP5): displayed binding specificity
Binding specificity for BMP7 (BMP7): displayed binding specificity
Binding specificity for BMP14 (BMP14): displayed binding specificity
Molecule: 91 (GGGAWEAFSSLSGSRV) [compound 91]

Binding specificity for BMP2 (BMP2): showed binding specificity
Binding specificity for BMP4 (BMP4): showed binding specificity
Binding specificity for BMP7 (BMP7): showed binding specificity
Binding specificity for BMP14 (BMP14): showed binding specificity
Molecule: 93 (SSSVDLYFPLKGDVVSR) [compound 93]

Binding specificity for BMP2 (BMP2): showed binding specificity
Binding specificity for BMP4 (BMP4): showed binding specificity
Binding specificity for BMP7 (BMP7): showed binding specificity
Binding specificity for BMP14 (BMP14): showed binding specificity
Molecule: 118 (GGALGFPLKGEVVEGWA) [compound 118]

EC50 [3, 5]: < 1 µM
EC50 [3, 6]: < 1 µM
EC50 [4]: < 1 µM
EC50 (cancellous bone (CNB)): < 1 µM
Molecule: CC(C)C[C@H](NC(=O)[C@H](CO)NC(=O)[C@H](CCCNC(=N)N)NC(=O)[C@H](Cc1ccccc1)NC(=O)[C@H](CC(=O)O)NC(=O)[C@H](Cc1c[nH]c2ccccc12)NC(=O)[C@@H](N)CO)C(=O)N[C@@H](CCCNC(=N)N)C(=O)N[C@@H](CC(=O)O)C(=O)N[C@@H](Cc1c[nH]c2ccccc12)C(=O)N[C@@H](Cc1c[nH]c2ccccc12)C(=O)N1CCC[C@H]1C(=O)N1CCC[C@H]1C(=O)N[C@@H](C)C(=O)N1CCC[C@H]1C(=O)N[C@@H](CO)C(=O)N[C@@H](CC(C)C)C(=O)N[C@@H](CO)C(=O)N[C@@H](CO)C(=O)N[C@@H](CCCNC(=N)N)C(=O)NCC(=O)N[C@@H](CO)C(=O)N[C@@H](CO)C(=O)NCC(=O)N[C@@H](CCCCNC(=O)CCCC[C@@H]1SC[C@@H]2NC(=O)N[C@@H]21)C(=O)O [compound 45] (H-SWDFRSLRDWWPPAPSLSSRGSSGK(Biotin)-OH)

More lines, now with the values behind:

Molecule: 120 (ALPSTSSQMPQL) [compound 120]
Binding to stem cells (stem cells): binding to stem cells

Molecule: 121 (SSSCQHVSLLRPSAALGPDNCSR) [compound 121]
Binding specificity for human adipose-derived stem cells [1]: has binding specificity

Molecule: 123 (HTPHPDASIQGV) [compound 123]
Binding to paclitaxel [2]: bind to paclitaxel

Molecule: 124 (VMNV) [compound 124]
Binding to human growth hormone (human growth hormone): found to bind to human growth hormone

Molecule: CC(C)C[C@H](NC(=O)[C@@H](N)CO)C(=O)NCC(=O)N[C@H](C(=O)N[C@@H](Cc1ccccc1)C(=O)N[C@@H](Cc1c[nH]c2ccccc12)C(=O)N[C@@H](CO)C(=O)N[C@@H](CO)C(=O)N[C@H](C(=O)N[C@@H](Cc1c[nH]c2ccccc12)C(=O)N[C@@H](CCCNC(=N)N)C(=O)NCC(=O)N[C@H](C(=O)N[C@@H](CC(=O)O)C(=O)N[C@@H](C)C(=O)NCC(=O)NCC(=O)N[C@@H](CCC(=O)O)C(=O)N[C@@H](CO)C(=O)N[C@@H](CCCNC(=N)N)C(=O)NCC(=O)N[C@@H](CO)C(=O)N[C@@H](CO)C(=O)NCC(=O)N[C@@H](CCCCNC(=O)CCCC[C@@H]1SC[C@@H]2NC(=O)N[C@@H]21)C(=O)O)C(C)C)C(C)C)[C@@H](C)O [compound 43] (H-SLGTFWSSVWRGVDAGGESRGSSGK(Biotin)-OH)
EC50 [3, 5]: < 1 µM
EC50 [3, 6]: < 1 µM
EC50 [4]: < 1 µM
EC50 (cancellous bone (CNB)): ≤ 1 µM

Molecule: CC[C@H](C)[C@H](NC(=O)[C@H](CC(=O)O)NC(=O)[C@H](Cc1ccccc1)NC(=O)[C@@H](N)CO)C(=O)N[C@@H](CC(=O)O)C(=O)N[C@@H](Cc1c[nH]c2ccccc12)C(=O)N[C@@H](CO)C(=O)NCC(=O)N[C@@H](CCSC)C(=O)N[C@@H](CCCNC(=N)N)C(=O)N[C@@H](CO)C(=O)N[C@@H](Cc1c[nH]c2ccccc12)C(=O)N[C@@H](Cc1c[nH]c2ccccc12)C(=O)NCC(=O)N[C@@H](CO)C(=O)N[C@@H](CCCNC(=N)N)C(=O)NCC(=O)N[C@@H](CO)C(=O)N[C@@H](CO)C(=O)NCC(=O)N[C@@H](CCCCNC(=O)CCCC[C@@H]1SC[C@@H]2NC(=O)N[C@@H]21)C(=O)O [compound 44] (H-SFDIDWSGMRSWWGSRGSSGK(Biotin)-OH)
EC50 [3, 5]: < 1 µM
EC50 [3, 6]: < 1 µM
EC50 [4]: < 1 µM
EC50 (cancellous bone (CNB)): < 1 µM
